What was measured:
[1] = target: T1, recombinant biotinylated human PAR2 extracellular domain (residues 1-75), N-terminal AviTag, C-terminal Flag … (human, UniProt P55085 26-75, biotin on the AviTag (enzymatic biotinylation)); test: Biacore SPR 25 C, pH 5.6
T1 construct: also called Bio-human-PAR2 ECD; human PAR2 ECD; not shown: N-terminal AviTag (Avidity LLC); C-terminal Flag and poly Histidine tags
Experimental: (§1) The experiments were carried out using recombinant human, rat and cynomolgus PAR2 with an N-terminal Avi tag and C-terminal Flag-His tags.
(§2) Streptavidin was covalently immobilised to a C1 chip surface using standard amine coupling techniques at a concentration of 4 μg/ml in 10 mM Sodium acetate pH 4.5. A final streptavidin surface of approximately 30-100 RUs was achieved. Recombinant biotinylated PAR2 species (produced in-house) were titrated onto the streptavidin chip surface at 4 μg/ml in HBS-EP+ buffer to enable Fab binding at saturation (Rₘₐₓ). This low level of analyte binding ensured minimal mass transport effects.
(§3) The anti-PAR2 Fabs were serially diluted (0.39 nM-25 nM) in HBS-EP+ buffer pH 7.4 or MES-BS-EP+ pH 6.0 buffer or in MES-BS-EP+ pH 5.6 buffer and flowed over the chip at 50 μl/min, with 3 minutes association and up to 30 minutes dissociation. Multiple buffer-only injections were made under the same conditions to allow for double reference subtraction of the final sensorgram sets, which were analysed using the BiaEval software (version 2.0.1). The chip surface was fully regenerated with pulses of 4 M MgCl₂.

[2] = target: T2, recombinant biotinylated cynomolgus (Macaca fascicularis) PAR2 extracellular residues 1-75, N-terminal … (cynomolgus (Macaca fascicularis)); test: Biacore SPR 25 C, pH 5.6
T2 construct: range 1-75; also called cynomolgus PAR2
Experimental: as §1, §2, §3

[3] = target: T1, recombinant biotinylated human PAR2 …; test: Biacore SPR 25 C, pH 6.0
Experimental: as §1, §2, §3

[4] = target: T2, recombinant biotinylated cynomolgus …; test: Biacore SPR 25 C, pH 6.0
Experimental: as §1, §2, §3

[5] = target: T1, recombinant biotinylated human PAR2 …; test: Biacore SPR 25 C, pH 7.4
[6] = target: T3, recombinant biotinylated rat PAR2 extracellular residues 1-75, N-terminal AviTag, C-terminal Flag and poly … (rat, UniProt Q63645 26-75, not fully specified; biotin on the AviTag (enzymatic biotinylation)); test: Biacore SPR 25 C, pH 7.4
T3 construct: range 1-75; not shown: N-terminal AviTag (Avidity LLC); C-terminal Flag and poly Histidine tags
T3 chain (looked up): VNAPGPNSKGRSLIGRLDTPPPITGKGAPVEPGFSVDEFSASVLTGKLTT

[7] = target: T1, recombinant biotinylated human PAR2 …; test: Biacore SPR 25 C, pH 6.0; remark: listed apart in the source
[8] = target: T3, recombinant biotinylated rat PAR2 …; test: Biacore SPR 25 C, pH 6.0
[9] = target: T1, recombinant biotinylated human PAR2 …; test: Biacore SPR 25 C, pH 7.4; remark: listed apart in the source
Experimental: as §1, §2, §3

[10] = target: T2, recombinant biotinylated cynomolgus …; test: Biacore SPR 25 C, pH 7.4
Experimental: as §1, §2, §3

[11] = target: T1, recombinant biotinylated human PAR2 …; test: Biacore SPR 25 C, pH 7.4 (second row)
Experimental: as §1, §2, §3

[12] = target: T2, recombinant biotinylated cynomolgus …; test: Biacore SPR 25 C, pH 7.4 (second row)
Experimental: as §1, §2, §3

[13] = target: T1, recombinant biotinylated human PAR2 …; test: Biacore SPR 25 C, pH 6.0 (second row)
Experimental: as §1, §2, §3

[14] = target: T2, recombinant biotinylated cynomolgus …; test: Biacore SPR 25 C, pH 6.0 (second row)
Experimental: as §1, §2, §3

[15] = target: T1, recombinant biotinylated human PAR2 …; test: Biacore SPR 25 C, pH 7.4; pH 7.4; human; second determination
Experimental: as §1, §2, §3

T1 sequence (P55085 26-75): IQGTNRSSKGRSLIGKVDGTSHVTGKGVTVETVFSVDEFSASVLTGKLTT

Kd [1]: 84.5 nM
koff [1]: 0.112 s⁻¹
kon [1]: 1.33e+06 M⁻¹ s⁻¹
Kd [2]: 37.8 nM
koff [2]: 0.139 s⁻¹
kon [2]: 3.66e+06 M⁻¹ s⁻¹
Kd [3]: 36.9 nM
koff [3]: 0.0576 s⁻¹
kon [3]: 1.56e+06 M⁻¹ s⁻¹
Kd [4]: 12.8 nM
koff [4]: 0.0275 s⁻¹
kon [4]: 2.14e+06 M⁻¹ s⁻¹
Kd [5]: 0.614 nM
koff [5]: 0.00504 s⁻¹
kon [5]: 8.2e+06 M⁻¹ s⁻¹
Kd [6]: 2.98 nM
koff [6]: 0.0263 s⁻¹
kon [6]: 8.82e+06 M⁻¹ s⁻¹
Kd [7]: 34.8 nM
koff [7]: 0.0554 s⁻¹
kon [7]: 1.59e+06 M⁻¹ s⁻¹
Kd [8]: 57.9 nM
koff [8]: 0.0841 s⁻¹
kon [8]: 1.45e+06 M⁻¹ s⁻¹
Kd [9]: 0.748 nM
koff [9]: 0.00534 s⁻¹
kon [9]: 7.14e+06 M⁻¹ s⁻¹
Kd [10]: 0.333 nM
koff [10]: 0.00223 s⁻¹
kon [10]: 6.67e+06 M⁻¹ s⁻¹
Kd [11]: 0.778 nM
koff [11]: 0.0053 s⁻¹
Kd [12]: 0.335 nM
koff [12]: 0.00221 s⁻¹
kon [12]: 6.59e+06 M⁻¹ s⁻¹
Kd [13]: 33.5 nM
koff [13]: 0.109 s⁻¹
kon [13]: 3.26e+06 M⁻¹ s⁻¹
Kd [14]: 13.6 nM
koff [14]: 0.0236 s⁻¹
kon [14]: 1.74e+06 M⁻¹ s⁻¹
kon [15]: 6.81e+06 M⁻¹ s⁻¹
B1: PaB670129 Fab (Fab, V domains shown)
VH: EVQLLESGGGLVQPGGSLRLSCAASGFTFSSYAMNWVRQAPGKGLEWVSTISYHGSHISYHDSVHHRFTISRDNSKNTLYLQMNSLRAEDTAVYYCARIHHDPMDVWGQGTLVTVSS
VL: SIELTQPPSVSVSPGQTASITCSGDNLGKKYVQWYQQKPGQSPVLVIYDDSNRPSGIPERFSGSNSGNTATLTISGTQAMDEADYYCQTWDGNPTTGETNVFGGGTKLTVL
notes: Fab; also called ZZ1RUE-F02

Reference: patent US20180305450A1 (AstraZeneca / MedImmune, published 2018)
